Reference: the supplement of paper PMC7125110
± gives the standard error. For part of these data: Fewer inactive variants are shown than the library holds.

B1: glmS ribozyme (parent)
chain: AUAAAAGCGCCAGAACUACAGAAAUGUAGUUGACGAGGAGGAGGUUUAUCGAAUUUUCGGCGGAUGCCUCCAAA

Experiments:
Settings in all cases: with glucosamine-6-phosphate
[1] = variants of: B1; assay: kcat; higher = faster cleavage; RNA array
Method in brief: (§1)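 kcat and KM were obtained from weighted Michaelis–Menten fits across concentrations of kobs values. Those came from one- or two-exponential decay fits to per-tile medians normalised to baseline and to non-cleaving reference variants. The variants were barcoded ribozymes transcribed in situ by E. coli RNA polymerase on sequenced MiSeq chips and tracked through a hybridised Cy3 probe at 37 °C, with 40 μM to 10 mM glucosamine-6-phosphate in HEPES/KCl/Mg(OAc)2 buffer flowed in.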

[2] = variants of: B1; assay: self-cleavage kobs at 10000 uM GlcN6P; higher = faster cleavage; RNA array
Method in brief: as §1

[3] = variants of: B1; assay: KM; higher = weaker cofactor use; RNA array
Method in brief: as §1

[4] = variants of: B1; assay: self-cleavage kobs at 40 uM GlcN6P; higher = faster cleavage; RNA array
Method in brief: as §1

[5] = variants of: B1; assay: self-cleavage kobs at 160 uM GlcN6P; higher = faster cleavage; RNA array
Method in brief: as §1

[6] = variants of: B1; assay: self-cleavage kobs at 640 uM GlcN6P; higher = faster cleavage; RNA array
Method in brief: as §1

[7] = variants of: B1; assay: self-cleavage kobs at 2500 uM GlcN6P; higher = faster cleavage; RNA array
Method in brief: as §1

| Variant | kcat [1] | self-cleavage kobs at 10000 uM GlcN6P [2] | KM [3] | self-cleavage kobs at 40 uM GlcN6P [4] | self-cleavage kobs at 160 uM GlcN6P [5] | self-cleavage kobs at 640 uM GlcN6P [6] | self-cleavage kobs at 2500 uM GlcN6P [7] |
| --- | --- | --- | --- | --- | --- | --- | --- |
| U30A U49G C70U | 0.000102 ± 2.6e-05 s⁻¹ | 8.4e-05 ± 2e-05 s⁻¹ |  |  |  |  |  |
| U46A U55A | 0.00375 ± 0.001 s⁻¹ | 0.00298 ± 0.00056 s⁻¹ | 2140 ± 820 µM | 5.91e-05 ± 1.3e-05 s⁻¹ | 0.00063 ± 0.00021 s⁻¹ | 0.00107 ± 0.00026 s⁻¹ | 0.00221 ± 0.00094 s⁻¹ |
| G13U U54A | 0.00184 ± 0.00033 s⁻¹ | 0.00144 ± 0.00015 s⁻¹ | 2690 ± 770 µM | 4.3e-05 ± 9.5e-06 s⁻¹ | 0.000103 ± 1.6e-05 s⁻¹ | 0.000283 ± 5.5e-05 s⁻¹ | 0.00105 ± 0.00017 s⁻¹ |
| C16G U56A | 0.00335 ± 0.00047 s⁻¹ | 0.00286 ± 0.00043 s⁻¹ | 2810 ± 590 µM | 5.21e-05 ± 9.6e-06 s⁻¹ | 0.000189 ± 6.3e-05 s⁻¹ | 0.000593 ± 0.00014 s⁻¹ | 0.00135 ± 0.00026 s⁻¹ |
| A39C A64U | 1.4e-05 ± 2.1e-06 s⁻¹ |  |  |  |  |  |  |
| G13A C16U | 0.000763 ± 9.4e-05 s⁻¹ | 0.000577 ± 7.9e-05 s⁻¹ | 2220 ± 460 µM |  | 4.29e-05 ± 1.2e-05 s⁻¹ | 0.000172 ± 2.2e-05 s⁻¹ | 0.000459 ± 5.5e-05 s⁻¹ |
| G38A C70G | 1.82e-05 ± 1.9e-06 s⁻¹ |  |  |  |  |  |  |
| A14G U46C | 0.0067 ± 0.0025 s⁻¹ | 0.00545 ± 0.002 s⁻¹ |  | 0.000504 ± 0.00011 s⁻¹ |  | 0.00207 ± 0.00084 s⁻¹ | 0.00744 ± 0.0013 s⁻¹ |
| G38C C50U C61G | < 1e-05 s⁻¹ |  |  |  |  | < 1e-05 s⁻¹ |  |
| G37A U45G | 0.00169 ± 0.00018 s⁻¹ | 0.00132 ± 0.00019 s⁻¹ | 2870 ± 530 µM |  | 8.96e-05 ± 3.2e-05 s⁻¹ | 0.000349 ± 6.9e-05 s⁻¹ | 0.000738 ± 0.00016 s⁻¹ |
| U31A C58G G62C A64C C67A | 1.85e-05 ± 3.6e-06 s⁻¹ |  |  |  |  |  |  |
| G13C U54G | 0.000222 ± 4.5e-06 s⁻¹ | 0.000138 ± 1.7e-05 s⁻¹ | 6040 ± 230 µM |  |  |  | 6.51e-05 ± 1e-05 s⁻¹ |
| G37U C70G | 2.07e-05 ± 8.5e-06 s⁻¹ |  |  |  |  |  |  |
| A12G U65G | 0.000107 ± 1.4e-05 s⁻¹ | 8.79e-05 ± 7.1e-06 s⁻¹ | 2380 ± 960 µM |  |  | 3.32e-05 ± 9e-06 s⁻¹ | 4.72e-05 ± 8.3e-06 s⁻¹ |
| A12G U31A G32U | 6.44e-05 ± 1.1e-06 s⁻¹ | 4.08e-05 ± 1.1e-05 s⁻¹ | 5790 ± 240 µM |  |  |  |  |
| A6U C16A | 1.85e-05 ± 5.8e-06 s⁻¹ |  |  |  |  |  |  |
| U45G U65G | 0.00365 ± 0.0011 s⁻¹ | 0.00282 ± 0.00077 s⁻¹ | 2200 ± 1000 µM | 7.22e-05 ± 2.1e-05 s⁻¹ |  | 0.000639 ± 0.00024 s⁻¹ | 0.00296 ± 0.00091 s⁻¹ |
| G35A U49C | < 1e-05 s⁻¹ | < 1e-05 s⁻¹ |  |  |  | < 1e-05 s⁻¹ |  |

| Variant | kcat [1] | self-cleavage kobs at 10000 uM GlcN6P [2] | KM [3] | self-cleavage kobs at 40 uM GlcN6P [4] | self-cleavage kobs at 160 uM GlcN6P [5] | self-cleavage kobs at 640 uM GlcN6P [6] | self-cleavage kobs at 2500 uM GlcN6P [7] |
| --- | --- | --- | --- | --- | --- | --- | --- |
| U65G C68A | 6.34e-05 ± 1e-06 s⁻¹ | 6.04e-05 ± 9.2e-06 s⁻¹ | 501 ± 50 µM |  |  |  | 5.3e-05 ± 1.2e-05 s⁻¹ |
| A39C U46A | 0.000341 ± 6.3e-05 s⁻¹ | 0.000249 ± 3.6e-05 s⁻¹ | 2880 ± 980 µM |  |  | 5.57e-05 ± 1e-05 s⁻¹ | 0.000209 ± 3.4e-05 s⁻¹ |
| A52G U69C | 0.000343 ± 3.8e-05 s⁻¹ | 0.000381 ± 0.00011 s⁻¹ | 425 ± 160 µM |  |  | 0.000215 ± 4.5e-05 s⁻¹ | 0.000269 ± 5.7e-05 s⁻¹ |
| U30C A53G | 0.000411 ± 4.1e-05 s⁻¹ | 0.000328 ± 3.8e-05 s⁻¹ | 2120 ± 440 µM |  |  | 9.02e-05 ± 1.4e-05 s⁻¹ | 0.000252 ± 3.6e-05 s⁻¹ |
| C58A C67U | 0.000215 ± 1.7e-05 s⁻¹ | 0.000182 ± 1.7e-05 s⁻¹ | 1370 ± 290 µM |  |  | 6.4e-05 ± 1e-05 s⁻¹ | 0.000161 ± 2e-05 s⁻¹ |
| A12C C67A | 0.00471 ± 0.0013 s⁻¹ | 0.00467 ± 0.00054 s⁻¹ | 1180 ± 470 µM | 0.000204 ± 1.9e-05 s⁻¹ | 0.000456 ± 7.2e-05 s⁻¹ | 0.00125 ± 0.0002 s⁻¹ | 0.0034 ± 0.00084 s⁻¹ |
| A6G G37C | < 1e-05 s⁻¹ |  |  |  | < 1e-05 s⁻¹ |  |  |
| A39G C70U C71U | 0.000401 ± 9.5e-05 s⁻¹ | 0.000785 ± 0.00024 s⁻¹ |  | 0.000107 ± 2.7e-05 s⁻¹ | 0.000403 ± 0.00018 s⁻¹ | 0.000383 ± 8.4e-05 s⁻¹ | 0.000283 ± 8.9e-05 s⁻¹ |
| G40A C58U | 4.57e-05 ± 1.8e-05 s⁻¹ |  |  |  |  |  |  |
| G29U G41A | 0.000207 ± 3.7e-05 s⁻¹ | 0.000164 ± 4e-05 s⁻¹ | 1480 ± 620 µM | < 1e-05 s⁻¹ |  | 5.62e-05 ± 1.8e-05 s⁻¹ | 0.000155 ± 3.1e-05 s⁻¹ |
| A6U A14G | 0.000657 ± 7.8e-05 s⁻¹ | 0.000513 ± 8.4e-05 s⁻¹ | 2280 ± 480 µM |  | 4.93e-05 ± 2.3e-05 s⁻¹ | 0.000135 ± 2.3e-05 s⁻¹ | 0.000414 ± 8.3e-05 s⁻¹ |
| A48G G59A | 5.08e-05 ± 1.8e-05 s⁻¹ |  |  |  |  |  | 6.29e-05 ± 1.8e-05 s⁻¹ |
| A53U U69G | 6.8e-05 ± 1.2e-05 s⁻¹ | 4.84e-05 ± 1.2e-05 s⁻¹ |  |  | 6.15e-05 ± 1.2e-05 s⁻¹ | 4.69e-05 ± 1.2e-05 s⁻¹ | 8.29e-05 ± 9.4e-06 s⁻¹ |
| G63U C68A | 1.22e-05 ± 2.6e-06 s⁻¹ |  |  |  |  |  |  |
| A12G U55C | 0.00114 ± 0.00024 s⁻¹ | 0.000755 ± 9.7e-05 s⁻¹ | 4740 ± 1400 µM |  | 4.44e-05 ± 7.8e-06 s⁻¹ | 0.000118 ± 1.7e-05 s⁻¹ | 0.000461 ± 7.4e-05 s⁻¹ |
| U31C G66A | 0.00283 ± 0.00065 s⁻¹ | 0.00266 ± 0.00027 s⁻¹ | 2030 ± 750 µM | 6.95e-05 ± 9.4e-06 s⁻¹ | 0.000128 ± 4.7e-05 s⁻¹ | 0.000724 ± 8.4e-05 s⁻¹ | 0.00127 ± 0.00017 s⁻¹ |
| A6C A12C U57G | 1.28e-05 ± 2.4e-06 s⁻¹ | < 1e-05 s⁻¹ |  |  |  |  |  |
| C61G C67G C70G | < 1e-05 s⁻¹ |  |  |  |  |  |  |
